From PMC12416549 (2024)
Residue numbers refer to the chain shown, from its start. Names and notes keep the numbering of the source.

T1: TNFR1 (Homo sapiens, UniProt P19438)
T1 chain: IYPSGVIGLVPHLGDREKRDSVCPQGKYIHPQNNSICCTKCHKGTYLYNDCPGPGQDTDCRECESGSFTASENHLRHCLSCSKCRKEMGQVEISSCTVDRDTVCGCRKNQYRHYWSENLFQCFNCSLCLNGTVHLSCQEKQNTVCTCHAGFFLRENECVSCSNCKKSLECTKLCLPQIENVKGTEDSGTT

B1: S59T (designed binder)
chain: SMEEEVEKAAKEYEKKKKEAIEKHLEKLKAKDKEAAERFLKELEEAAKEYAKDEAKTMTEEEAKRRAKKYKEKVLLSELSEEEQKEIKEAEEKLVRTILKYVEEAAK
B2: S77A (designed binder)
chain: B1 chain with T59S, S77A
B3: E22A (designed binder)
chain: B1 chain with E22A, T59S
B4: A106S (designed binder)
chain: B1 chain with T59S, A106S
B5: E78H (designed binder)
chain: B1 chain with T59S, E78H
B6: E86Y (designed binder)
chain: B1 chain with T59S, E86Y
B7: A36V (designed binder)
chain: B1 chain with A36V, T59S
B8: E62W (designed binder)
chain: B1 chain with T59S, E62W
B9: E4H (designed binder)
chain: B1 chain with E4H, T59S
B10: E81V (designed binder)
chain: B1 chain with T59S, E81V
B11: A90P (designed binder)
chain: B1 chain with T59S, A90P
B12: Y70K (designed binder)
chain: B1 chain with T59S, Y70K
B13: L28I (designed binder)
chain: B1 chain with L28I, T59S
B14: L40A (designed binder)
chain: B1 chain with L40A, T59S
B15: I21W (designed binder)
chain: B1 chain with I21W, T59S
B16: K31W (designed binder)
chain: B1 chain with K31W, T59S
B17: I87F (designed binder)
chain: B1 chain with T59S, I87F
B18: K17F (designed binder)
chain: B1 chain with K17F, T59S
B19: K8N (designed binder)
chain: B1 chain with K8N, T59S
B20: A10T (designed binder)
chain: B1 chain with A10T, T59S
B21: E78I (designed binder)
chain: B1 chain with T59S, E78I
B22: E92H (designed binder)
chain: B1 chain with T59S, E92H
B23: E4T (designed binder)
chain: B1 chain with E4T, T59S
B24: K52E (designed binder)
chain: B1 chain with K52E, T59S
B25: K52H (designed binder)
chain: B1 chain with K52H, T59S
B26: S59F (designed binder)
chain: B1 chain with T59F
B27: E89Y (designed binder)
chain: B1 chain with T59S, E89Y
B28: K69E (designed binder)
chain: B1 chain with T59S, K69E
B29: V95M (designed binder)
chain: B1 chain with T59S, V95M
B30: A9M (designed binder)
chain: B1 chain with A9M, T59S
B31: A63H (designed binder)
chain: B1 chain with T59S, A63H
B32: K31A (designed binder)
chain: B1 chain with K31A, T59S
B33: E3D (designed binder)
chain: B1 chain with E3D, T59S
B34: E60L (designed binder)
chain: B1 chain with T59S, E60L
B35: K33Q (designed binder)
chain: B1 chain with K33Q, T59S
B36: K18L (designed binder)
chain: B1 chain with K18L, T59S
B37: L75H (designed binder)
chain: B1 chain with T59S, L75H
B38: V6I (designed binder)
chain: B1 chain with V6I, T59S
B39: M58V (designed binder)
chain: B1 chain with M58V, T59S
B40: S80G (designed binder)
chain: B1 chain with T59S, S80G
B41: D53F (designed binder)
chain: B1 chain with D53F, T59S
B42: R96K (designed binder)
chain: B1 chain with T59S, R96K
B43: S80D (designed binder)
chain: B1 chain with T59S, S80D
B44: L28Q (designed binder)
chain: B1 chain with L28Q, T59S
B45: E103T (designed binder)
chain: B1 chain with T59S, E103T
B46: A9Q (designed binder)
chain: B1 chain with A9Q, T59S
B47: E89F (designed binder)
chain: B1 chain with T59S, E89F
B48: E72R (designed binder)
chain: B1 chain with T59S, E72R
B49: L99W (designed binder)
chain: B1 chain with T59S, L99W
B50: E37K (designed binder)
chain: B1 chain with E37K, T59S
B51: A20R (designed binder)
chain: B1 chain with A20R, T59S
B52: K88T (designed binder)
chain: B1 chain with T59S, K88T
B53: E81G (designed binder)
chain: B1 chain with T59S, E81G
B54: Y70N (designed binder)
chain: B1 chain with T59S, Y70N
B55: A51K (designed binder)
chain: B1 chain with A51K, T59S
B56: K33F (designed binder)
chain: B1 chain with K33F, T59S
B57: A46D (designed binder)
chain: B1 chain with A46D, T59S
B58: A35V (designed binder)
chain: B1 chain with A35V, T59S
B59: I87K (designed binder)
chain: B1 chain with T59S, I87K

Target: T1, TNFR1
Test: yeast display SC50

Row | Binder | apparent Kd (screen) [nM]
1 | B1 | 1.54
2 | B2 | 0.49
3 | B3 | 0.539
4 | B4 | 0.79
5 | B5 | 0.49
6 | B6 | 1.4
7 | B7 | 0.446
8 | B8 | 0.956
9 | B9 | 1.4
10 | B10 | 0.446
11 | B11 | 26.9
12 | B12 | 0.446
13 | B13 | 1.86
14 | B14 | 0.446
15 | B15 | 0.49
16 | B16 | 0.79
17 | B17 | 5.84
18 | B18 | 0.446
19 | B19 | 0.718
20 | B20 | 0.446

Row | Binder | apparent Kd (screen) [nM]
21 | B21 | 0.49
22 | B22 | 3
23 | B23 | 0.446
24 | B24 | 0.446
25 | B25 | 0.956
26 | B26 | 7.07
27 | B27 | 2.25
28 | B28 | 0.593
29 | B29 | 10.4
30 | B30 | 0.446
31 | B31 | 4.39
32 | B32 | 0.718
33 | B33 | 2.48
34 | B34 | 0.446
35 | B35 | 0.869
36 | B36 | 1.69
37 | B37 | 1.69
38 | B38 | 0.49
39 | B39 | 2.25
40 | B40 | 2.48

Row | Binder | apparent Kd (screen) [nM]
41 | B41 | 2.48
42 | B42 | 0.718
43 | B43 | 1.4
44 | B44 | 0.539
45 | B45 | 0.718
46 | B46 | 0.446
47 | B47 | 1.86
48 | B48 | 7.07
49 | B49 | 11.4
50 | B50 | 0.49
51 | B51 | 0.446
52 | B52 | 0.446
53 | B53 | 1.16
54 | B54 | 8.56
55 | B55 | 0.49
56 | B56 | 0.49
57 | B57 | 2.73
58 | B58 | 0.653
59 | B59 | 9.41
